Experimental data taken from the nanobody polyreactivity screen of Harvey et al. (2022).

Assay: yeast display, Sf9 membrane polyspecificity reagent, FACS + sequencing; frameworks hold sequencing errors
Summary of the method: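 A synthetic nanobody library was expressed on Saccharomyces cerevisiae BJ5465 by galactose induction for 36–48 hours. The library was stained for 1 hour at 4 °C with 10% biotinylated, detergent-solubilized Sf9 membrane reagent and enriched with streptavidin microbeads before FACS. Low and high (top ~1%) gates were set on anti-HA fluorescence for expression and streptavidin fluorescence for reagent binding, and each polyreactivity label reflects the gate of origin.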

| Sequence | polyreactivity (PSR sort gate) |
| --- | --- |
| QVQLVESGGGLVQAGGSLRLSCAASGRIFYRNAMGWYRQAPGKERELVASITSGGRTNYADSVKGRFTISRDNAKNTVYLQMNSLKPEDTAVYYCAAPPPYSVRTFRFYYWGQGTQVTVSS | high polyreactivity |
| QVQLVESGGGLVQAGGSLRLSCAASGRIFYRNAMGWYRQAPGKERELVAVITSSSGSTYADSVKGRFTISRDNAKNTVYLQMNSLKPEDTAVYYCAAEEDYIYFYVSMDYWGQGTQVTVSS | low polyreactivity |
| QVQLVESGGGLVQAGGSLRLSCAASGRIFYRNAMGWYRQAPGQERELDAGITRGGSTNYADSVKGRFTISRDNAKNTVYLQMNSLKPEDTAVYYCAKAIPAKFYSEAGYDYWGQGTQVTVSS | low polyreactivity |
| QVQLVESGGGLVQAGGSLRLSCAASGRIFYRYAMGWYRQAPGKEREFVAAISGTGGSTYYADSVKGRFTISRDNAKNTVYLQMNSLKPEDTAVYYCAASVVSRPTYYAYYYWGQGTQVTVSS | high polyreactivity |
| QVQLVESGGGLVQAGGSLRLSCAASGRIFYRYAMGWYRQAPGKERELVAAISRTGSRTYYADSVKGRFTISRDNAKNTVYLQMNSLKPEDTAVYYCNKVSAPAEFRSRGYWGQGTQVTVSS | high polyreactivity |
| QVQLVESGGGLVQAGGSLRLSCAASGRIFYRYAMGWYRQAPGKERELVAAISSGGSTYYADSVKGRFTISRDNAKNTVYLQMNSLKPEDTAVYYCAATWGRGTYYLYYYWGQGTQVTVSS | high polyreactivity |
| QVQLVESGGGLVQAGGSLRLSCAASGRIFYRYAMGWYRQAPGKERELVAAISTSGARTYYADSVKGRFTISRDNAKIYVYLQMNSLKPVDTAVYYCAATATVSKFGYWGQGTQVTVSS | low polyreactivity |
| QVQLVESGGGLVQAGGSLRLSCAASGRIFYRYAMGWYRQAPGKERELVAAITGSGGSTYYADSVKGRFTISRDNAKNTVYLQMNSLKPEDTAVYYCNAVYARYGSQGYEYWGQGTQVTVSS | high polyreactivity |
| QVQLVESGGGLVQAGGSLRLSCAASGRIFYRYAMGWYRQAPGKERELVAAITYSGGSTYYADSVKGRFTISRDNAKNTVYLQMNSLKPEDTAVYYCAAGGRGRPTTPPYGWYKLNYWGQGTQVTVSS | high polyreactivity |
| QVQLVESGGGLVQAGGSLRLSCAASGRIFYRYAMGWYRQAPGKERELVAGISNSGGSTYYADSVKGRFTISRDNAKNTVYLQMNSLKPADTAVYYCATGPSYRYDIGGGRIRYYYWGQGTQVSVSS | high polyreactivity |
| QVQLVESGGGLVQAGGSLRLSCAASGRIFYRYAMGWYRQAPGKERELVATISSGASTNYADSVKGRFTISRDNAKNTVYVQMNSLKPEDTADYYCARLSLRYSYVSRDYWGHGTQVTVSS | low polyreactivity |
| QVQLVESGGGLVQAGGSLRLSCAASGRIFYRYARGWYRQAPGKERELVAAITSGTSTNYADSVKGRFTFSRDNAKNTVYLQMNSLKPEDTAVYYCAKRYYCKYAEYDYWGQGTQVTVSS | high polyreactivity |
| QVQLVESGGGLVQAGGSLRLSCAASGRIFYSKVMGWYRQAPGKERELVAALSGRTGGTYYADSVKGRFTISRDNAKNTVYLQMNSLKPEDTAVYYCAARVLYYYGSGPYDYWGQGTQVTVSS | low polyreactivity |
| QVQLVESGGGLVQAGGSLRLSCAASGRIFYSNAMGWYRQAPGKERELVAAISRSGVRTYYADSVKGRFTISRDNAKNTVYLQMNSLKPEDTAVYYCAADLYWWSYYYWGQGTQVTVSS | low polyreactivity |
| QVQLVESGGGLVQAGGSLRLSCAASGRIFYSNAMGWYRQAPGKERELVAAISSSGGSTYYADSVKGRFTISRDNAKNTVDLQMNSLKPEDTAVYYCNAVHARYRSQGDYWGQGTQVTVSS | low polyreactivity |
| QVQLVESGGGLVQAGGSLRLSCAASGRIFYSNAMGWYRQAPGKERELVAANTSGGNTYYADSVKGRFTISRDNAKNTVYLLMNSLKPEDTAVYYCAADHYWRRSGFGYWGQGTQVTVSS | low polyreactivity |
| QVQLVESGGGLVQAGGSLRLSCAASGRIFYSNTMGWYRQAPGKVRELVAAISRRGGSTYYADSVKGRFTISRDNAKTTVYLQMNSLKPEDTALYYCNTGYSTRLHDYWGQGTQVTVSS | high polyreactivity |
| QVQLVESGGGLVQAGGSLRLSCAASGRIFYSYAMGWYREAPGKERELVARITRGSSTYYADSVKGRFTISRDNAKNTVYLQMNSLKPEDTAVYYCAKSRYTALTNHWSHDYWGQGTQVTVSS | low polyreactivity |
| QVQLVESGGGLVQAGGSLRLSCAASGRIFYSYAMGWYRQAPGKEREFVAAISYSGGSTYYADSVKGRFTISRDNAKNTVFLQMNSLKPEDTAVYYCAAKVKFYTYYYWGQGTQVTVSS | high polyreactivity |
| QVQLVESGGGLVQAGGSLRLSCAASGRIFYSYAMGWYRQAPGKERELVAAISSAGSTYYADSVKGRFTISRDNAKNTVYLQMNSLKPEDSAVYYCAAYRAGNSYYPRLNYWGQGTQVTVSS | high polyreactivity |
| QVQLVESGGGLVQAGGSLRLSCAASGRIFYSYGMGWYRQAPGKERELVATISIGGSTNYADSVKGRFTSSRDNAKNTVYLQMNSLKPEDTAVYYCNARAWFSYTSRRYTYWQEGYWGQGTQVTVSS | high polyreactivity |
| QVQLVESGGGLVQAGGSLRLSCAASGRIFYTNAMGWYRQAPGKERELVAGIRFNGGSTYYADSVKGRFTISRDNAKNTVYLQMNSLKPEDTAVYYCAVRTYYSGYDSWGQGTQVTVSS | low polyreactivity |

| Sequence | polyreactivity (PSR sort gate) |
| --- | --- |
| QVQLVESGGGLVQAGGSLRLSCAASGRIFYTYAMGWYRQAPGKERELVAAINYSSASTYYADSVKGRFTISRDNAKNTVYLQMNSLKPEDTAVYYCNVAYVYGSFRRRPMGYWGQGTQVTVSS | high polyreactivity |
| QVQLVESGGGLVQAGGSLRLSCAASGRIFYTYAMGWYRQAPGKERELVAAITYRGGSTYYADSVKGRFTISRDNAKNTVYLQMNSLKPEDTAVYYCATQLWDRYGFGYWGQGTQVTVSS | high polyreactivity |
| QVQLVESGGGLVQAGGSLRLSCAASGRIFYVYAMGWYRQAPGKERELVAAITSSGGTTYYADSVKGRFTISRDNAKNTVYLQMNSLKPEDTAVYYCNLIYRYGWGDYWGQGTQVTVSS | high polyreactivity |
| QVQLVESGGGLVQAGGSLRLSCAASGRIFYVYTMGWYRQAPGKERELVASIRRSGGSTYYADSVKGRFTISRDNAKNTVYLQMNSLKPEDTAVYYCAARYNSAANDKRYYYWGQGTQVTVSS | high polyreactivity |
| QVQLVESGGGLVQAGGSLRLSCAASGRIFYWNVMGWYRQAPGKERELVAAISSSGASTSYADSVKGRFTISRDNAKNTVYLQMNSLKPEDTAVYHCAARTRRNYRQYNYWGQGTQVTVSS | high polyreactivity |
| QVQLVESGGGLVQAGGSLRLSCAASGRIFYYNAMGWYRPAPGKERELVAAINYRGGSTYYADSVKGRFTISRDNAKNTVYFQMNSLKPEDTAVYDCAARYWKDGSTYDYWGQGTQVTVSS | high polyreactivity |
| QVQLVESGGGLVQAGGSLRLSCAASGRIFYYNAMGWYRQAPGKEMELVAAITSGGSTNYADSVKGRFTISRDNAKNTVYLQMNSLKPEDTAVYYCAADYYYYVAGVHYDYWGQGTQVTVSS | low polyreactivity |
| QVQLVESGGGLVQAGGSLRLSCAASGRIFYYNAMGWYRQAPGKERELVAAINYRGGSTYYADSVKGRFTISRDNAKNTVYLQMNSLKPEDTAVYYCAARYWEDGSTYDYWGQGTQVTVSS | high polyreactivity |
| QVQLVESGGGLVQAGGSLRLSCAASGRIFYYNDMGWYRQAPGKERELVATITIGNSTNYADSVKGRFTISRDNAKNTVYLQMKSLKPEDTAVYYCNADYSDVTTGDWRYENDYWGQGTQVTVSS | low polyreactivity |
| QVQLVESGGGLVQAGGSLRLSCAASGRIFYYNDMGWYRQAPGKERELVATITIGNSTNYADSVKGRFTISRDNAKNTVYLQMNSLKPEDTAVYYCNADYSDVTTGDWRYENDYWGQGTQVTVSS | low polyreactivity |
| QVQLVESGGGLVQAGGSLRLSCAASGRIFYYNTMGWYRQAPGKERELVARITYSGGRTYYADSVKGRFTISRDNAKNTVYLQMNSLKPEDTAVYYCNTAYRYFERQMYYWGQGTQVTVSS | high polyreactivity |
| QVQLVESGGGLVQAGGSLRLSCAASGRIFYYNVMGWYRQAPGKERELVAAITWSGGSTYYADSVKGRFTISRDNAKNTVYLQMNSLKPEDTAVYYCAAKFSKWTLKKYYYWGQGTQVTVSS | high polyreactivity |
| QVQLVESGGGLVQAGGSLRLSCAASGRIFYYNVMGWYRQAPGKERELVADIRSGDRTYYADSVKGRFTISRDNAKNTVYLQMNSLKPEDTAVYYCAADGWYRRGYYYWGQGTQVTVSS | low polyreactivity |
| QVQLVESGGGLVQAGGSLRLSCAASGRIFYYYALGWYRQAPGKERELVAAISSIDGTTYYADSVKGRFTISRDNAKNTVYLQMNSLKPEDTAVYYCAAEDPADQYDYWGQGTQVTVSS | high polyreactivity |
| QVQLVESGGGLVQAGGSLRLSCAASGRIFYYYAMGWYRQAPGKEREFVAAIRVTSDSTYYADSVKGRFTISRDNAKNTVYLQMNSLKPEDTAVYYCAADSFYFPYDYWGQGTQVTVSS | high polyreactivity |
| QVQLVESGGGLVQAGGSLRLSCAASGRIFYYYAMGWYRQAPGKEREFVADISARGGSTYYADSVKGRFTISRDNAKKTVYLEMNSLKPEDTAVYYCAATTGLYTRYGYWGQGTQVTVSS | high polyreactivity |
| QVQLVESGGGLVQAGGSLRLSCAASGRIFYYYAMGWYRQAPGKERELVAAITRGGGTYYADSVKGRFTISRDNAKNTVYLQMNSLKPEDTAVYYCAKRGPPESHHPYRYRFDYWGQGTQVTVSS | low polyreactivity |
| QVQLVESGGGLVQAGGSLRLSCAASGRIFYYYAMGWYRQAPGKERELVAAITSGGRTYYADSVKGRFTISRDNAKNTVYLQMNSLKPEDTAVYYCAADRTYTYLGPGYEYWGQGTQVTVSS | low polyreactivity |
| QVQLVESGGGLVQAGGSLRLSCAASGRIFYYYAMGWYRQAPGKERELVAVISRGGRTKYADSVKGRFTISRDNAKNTVYLQMNSLKPEDTAVYYCAVGLSGASSGMGYWGQGTQVTVSS | high polyreactivity |
| QVQLVESGGGLVQAGGSLRLSCAASGRIFYYYDMGWYRQAPGNERELVAGINDDSSTYYADSVKGRFTISRDNAKNTVYLQMNSLKPEDTAVYYCNAGPSWYPCWYYYWGQGTQVTVSS | low polyreactivity |
| QVQLVESGGGLVQAGGSLRLSCAASGRIFYYYTMGWYRQAPGKERELVAAITSNGGSTYYADSVKGRFTISRDNAKNTVYLQMNSLKPEDTAVYYCAADSYSYRYYYWGQGTQVTVSS | high polyreactivity |
